Laboratory results taken from patent US20170298096A1 (CANIMGUIDE THERAPEUTICS, published 2017).
No end group written: not given here.

T1: His-tagged P3028 (human, not fully specified)
T1 construct: the tag is put first after 'PGE73=His-tag-P3028'; also called PGE73; not shown: His-tag
T1 peptide: {His‑tag}-VFDEFKPLVEEPQNLIK

T2: His-tagged P3028 (human, also: His-tag, terminus and sequence not given here)
T2 construct: in solution at 0.5 ug/mL over the peptide cards; found with anti-His-tag antibody and rabbit anti-mouse peroxidase (rampo); also called PGE73; not shown: His-tag
T2 peptide: VFDEFKPLVEEPQNLIK


Target: T1, His-tagged P3028
Assay: chip ELISA

First: KKLATFFVKLSLFTER [P28R D4A]
Second: KKLETFFVKLSLFTER [P28R D4E]
The ELISA signal of the first is higher: 494 for the first, 417 for the second.

First: KKLFTFFVKLSLFTER [P28R D4F]
Second: KKLHTFFVKLSLFTER [P28R D4H]
The ELISA signal of the first is higher: 380 for the first, 317 for the second.

First: KKLITFFVKLSLFTER [P28R D4I]
Second: KKLKTFFVKLSLFTER [P28R D4K]
The ELISA signal of the first is higher: 430 for the first, 274 for the second.

Going from KKLLTFFVKLSLFTER [P28R D4L] to KKLMTFFVKLSLFTER [P28R D4M], the ELISA signal rises from 303 to 384.

Going from KKLNTFFVKLSLFTER [P28R D4N] to KKLQTFFVKLSLFTER [P28R D4Q], the ELISA signal rises from 296 to 345.

Going from KKLRTFFVKLSLFTER [P28R D4R] to KKLSTFFVKLSLFTER [P28R D4S], the ELISA signal rises from 317 to 344.

Compared with KKLTTFFVKLSLFTER [P28R D4T], KKLVTFFVKLSLFTER [P28R D4V] is higher in ELISA signal: 405 for the first, 424 for the second.

Compared with KKLWTFFVKLSLFTER [P28R D4W], KKLYTFFVKLSLFTER [P28R D4Y] is lower in ELISA signal: 443 for the first, 422 for the second.

Compared with KKLDTFFVKLSLFTAR [P28R E15A], KKLDTFFVKLSLFTDR [P28R E15D] is higher in ELISA signal: 174 for the first, 404 for the second.

Going from KKLDTFFVKLSLFTFR [P28R E15F] to KKLDTFFVKLSLFTHR [P28R E15H], the ELISA signal rises from 137 to 318.

Going from KKLDTFFVKLSLFTIR [P28R E15I] to KKLDTFFVKLSLFTKR [P28R E15K], the ELISA signal rises from 163 to 324.

First: KKLDTFFVKLSLFTLR [P28R E15L]
Second: KKLDTFFVKLSLFTMR [P28R E15M]
The ELISA signal of the first is lower: 246 for the first, 247 for the second.

First: KKLDTFFVKLSLFTNR [P28R E15N]
Second: KKLDTFFVKLSLFTQR [P28R E15Q]
The ELISA signal of the first is lower: 161 for the first, 344 for the second.

First: KKLDTFFVKLSLFTRR [P28R E15R]
Second: KKLDTFFVKLSLFTSR [P28R E15S]
The ELISA signal of the first is higher: 237 for the first, 165 for the second.

Target: T2, His-tagged P3028
Assay: PEPSCAN chip ELISA, His-P3028 in solution;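 further: score is the raw OD at 405 nm from peroxidase colour with ABTS, imaged by CCD camera before and after staining, with wells showing air bubbles set to zero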

Going from KWLDTFFVKLSLFTER [SEQ ID NO 490] to KKLLTFFVKLSLFTER [SEQ ID NO 491], the “RAMPO Score” value falls from 304 rampo score to 303 rampo score.

KKLDTFDVKLSLFTER [SEQ ID NO 492] and KKLDTFFVKLSLFQER [SEQ ID NO 493] are the same in “RAMPO Score” value: 301 rampo score for the first, 301 rampo score for the second.

First: KYLDTFFVKLSLFTER [SEQ ID NO 494]
Second: KKLDTFFAKLSLFTER [SEQ ID NO 495]
The “RAMPO Score” value of the first is higher: 301 rampo score for the first, 299 rampo score for the second.

Compared with KKLDTFFTKLSLFTER [SEQ ID NO 496], KKLDTFFVKLSPFTER [SEQ ID NO 497] is lower in “RAMPO Score” value: 298 rampo score for the first, 297 rampo score for the second.

First: KKLNTFFVKLSLFTER [SEQ ID NO 498]
Second: KCLDTFFVKLSLFTER [SEQ ID NO 499]
The “RAMPO Score” value of the first is higher: 296 rampo score for the first, 295 rampo score for the second.

Compared with KKLDDFFVKLSLFTER [SEQ ID NO 500], KKLDIFFVKLSLFTER [SEQ ID NO 501] is lower in “RAMPO Score” value: 295 rampo score for the first, 293 rampo score for the second.

Going from KKLDTFFVKHSLFTER [SEQ ID NO 502] to KKLDTFFVKLSLYTER [SEQ ID NO 503], the “RAMPO Score” value falls from 293 rampo score to 291 rampo score.

First: KKLDFFFVKLSLFTER [SEQ ID NO 504]
Second: KKLDTFFVKLILFTER [SEQ ID NO 505]
The “RAMPO Score” value of the first is higher: 290 rampo score for the first, 289 rampo score for the second.

Compared with KKLDTFFVKKSLFTER [SEQ ID NO 506], WKLDTFFVKLSLFTER [SEQ ID NO 507] is lower in “RAMPO Score” value: 285 rampo score for the first, 284 rampo score for the second.

KKLDTFFVKCSLFTER [SEQ ID NO 508] and KKLDTFFVMLSLFTER [SEQ ID NO 509] are the same in “RAMPO Score” value: 283 rampo score for the first, 283 rampo score for the second.

Compared with KSLDTFFVKLSLFTER [SEQ ID NO 510], KKLDTFFVSLSLFTER [SEQ ID NO 511] is lower in “RAMPO Score” value: 281 rampo score for the first, 274 rampo score for the second.

First: KKLKTFFVKLSLFTER [SEQ ID NO 512]
Second: KKLDTFFQKLSLFTER [SEQ ID NO 513]
The “RAMPO Score” value of the first is higher: 274 rampo score for the first, 271 rampo score for the second.

Compared with KKLDTFFVKLSLFYER [SEQ ID NO 514], KKLGTFFVKLSLFTER [SEQ ID NO 515] is lower in “RAMPO Score” value: 270 rampo score for the first, 264 rampo score for the second.

Compared with KKLDTFFVKLSLFKER [SEQ ID NO 517], KKLDTFFVNLSLFTER [SEQ ID NO 518] is lower in “RAMPO Score” value: 259 rampo score for the first, 256 rampo score for the second.

KKLDTFFCKLSLFTER [SEQ ID NO 519] and KKLDTFFVKLSLFCER [SEQ ID NO 520] are the same in “RAMPO Score” value: 254 rampo score for the first, 254 rampo score for the second.

Going from KKLDTFFVKLSLFTEV [SEQ ID NO 521] to KKLDTFFVKLFLFTER [SEQ ID NO 522], the “RAMPO Score” value falls from 254 rampo score to 250 rampo score.

Compared with KKLDTFFVVLSLFTER [SEQ ID NO 523], KKLDTFFVKLSLFTMR [SEQ ID NO 524] is lower in “RAMPO Score” value: 248 rampo score for the first, 247 rampo score for the second.

Going from KKLDTFFVKLSLFTLR [SEQ ID NO 525] to KKLDTFFVWLSLFTER [SEQ ID NO 526], the “RAMPO Score” value falls from 246 rampo score to 245 rampo score.

Compared with KKLDTFFVELSLFTER [SEQ ID NO 527], KKLDTFFVKLSLFTEH [SEQ ID NO 528] is lower in “RAMPO Score” value: 240 rampo score for the first, 239 rampo score for the second.

First: KKLDTFFVKLSLFTEM [SEQ ID NO 529]
Second: KKLDKFFVKLSLFTER [SEQ ID NO 530]
The “RAMPO Score” value of the first is higher: 238 rampo score for the first, 237 rampo score for the second.

First: KKLDTFFVKLSLFTRR [SEQ ID NO 531]
Second: KKLDTFFVKLELFTER [SEQ ID NO 532]
The “RAMPO Score” value of the first is higher: 237 rampo score for the first, 234 rampo score for the second.
